Reference: patent US20250237628A1 (JUNO THERAPEUTICS, published 2025)

How the values were obtained:
[1] = molecular target: T1, Strep-Tactin M2 streptavidin mutein covalently immobilised on chromatography resin (Streptomyces avidinii, UniProt P22629 38-163, covalently coupled to the resin (CNBr-activated Sephadex G-50, agarose, or epoxy-activated polystyrene)); test: loading of Fab on Strep-Tactin Sephadex G50 resin, 20 min at 4 °C
T1 construct: also called immobilized Strep-Tactin; STREP-TACTIN M2 multimer reagent

[2] = molecular target: T2, CD4 on the surface of human T cells (human, UniProt P01730 26-458); test: affinity column cell selection from apheresis, surface marker MFI of the collected cells by flow cytometry, 24 h with or without anti-CD3/anti-CD28 oligomeric reagent
T2 construct: whole, on cells; also called selection marker CD4

B1: anti-CD4 Fab fragment m13B8.2 with Twin Strep-Tag (Fab, V domains shown)
VH: QVQLKQSGPGLVQPSQSLSITCTVSGFSLTTFGVHWVRQSPGKGLEWLGVIWASGITDYNVPFMSRLSITKDNSKSQVFFKLNSLQPDDTAIYYCAKNDPGTGFAYWGQGTLVTVSA
VL: DIQMTQSPASLSASVGETVTFTCRASEMIYSYLAWYQQKQGKSPQLLVHDAKTLAEGVPSRFSGGGSGTQFSLKINTLQPEDFGTYYCQAHYGNPPTFGGGTKLEIKR
B1: binds [1]; binds [2].
